Source: patent EP4309676A1 (Emergence Therapeutics AG, dated 2024)

B1: Ch-15A7.5 (chimeric form of the anti-Nectin-4 monoclonal antibody 15A7.5) (antibody, V domains shown)
VH: EVKLVESGGGLVQPGGSRKLSCAASGFTFSNYGMAWVRQAPGKGPEWVAFISNLAYGINYADTVTGRFTISRENAKNTLYLEMRSLRSEDTAMYYCARGARATGWFAYWGQGTLVTVSA
VL: DIVMTQSQKFMSTSIGDRVSVTCKASQNVDTHVAWYQEKPGQSPKALIYSASYRYSGVPDRFTGSGSGTDFTLTISNVQSEDLADYFCQQYNSYPLTFGGGTKLEIK
notes: also called 15A7.5 mAb
B2: Ch-5A12.2 (chimeric form of the anti-Nectin-4 monoclonal antibody 5A12.2) (antibody, V domains shown)
VH: QIQLQQSGAELVKPGASVTLSCKTSGFTFNSMYISWLKQKPGQSLEWIAWIYAGTGGTRFNQKFTGKVQLTVDTSSSTAYMQFSSLTTDDSAIYYCAIRSGFVPMDYWGQGTSVTVSS
VL: SIVMTQTPKFLLVSAGDRVTITCKASQSVSNDVAWYQQKPGQSPKLLIYYASNRYTGVPDRFTGSGYGTDFTFTISTVQAEDLAVYFCQQDYSSPWTFGGGTKLEIK
notes: also called 5A12.2 mAb

Tests used:
[1] = molecular target: T1, Nectin-4 IgV-like domain Fc fusion recombinant protein (human, UniProt Q96NY8 32-147, limits assumed); experiment: ELISA, plate coated with Nec4-V, peroxidase-conjugated Ch-15A7.5 (FIG. 2)
T1 construct: domain: IgV-like domain; also called Nec4-V; Nectin-4-V-Fc; not shown: Fc part
T1 sequence (looked up): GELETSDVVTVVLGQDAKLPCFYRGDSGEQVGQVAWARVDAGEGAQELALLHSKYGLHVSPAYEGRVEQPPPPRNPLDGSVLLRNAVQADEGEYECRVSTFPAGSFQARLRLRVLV

[2] = molecular target: T2, Nectin-1 extracellular domain Fc fusion recombinant protein (UniProt Q15223 31-355, limits assumed); experiment: ELISA, plate coated with Nec1-VCC, peroxidase-conjugated Ch-15A7.5 (FIG. 2)
T2 construct: extracellular domain; also called Nec1-VCC; Nectin-1-VCC-Fc; not shown: Fc part
T2 sequence (looked up): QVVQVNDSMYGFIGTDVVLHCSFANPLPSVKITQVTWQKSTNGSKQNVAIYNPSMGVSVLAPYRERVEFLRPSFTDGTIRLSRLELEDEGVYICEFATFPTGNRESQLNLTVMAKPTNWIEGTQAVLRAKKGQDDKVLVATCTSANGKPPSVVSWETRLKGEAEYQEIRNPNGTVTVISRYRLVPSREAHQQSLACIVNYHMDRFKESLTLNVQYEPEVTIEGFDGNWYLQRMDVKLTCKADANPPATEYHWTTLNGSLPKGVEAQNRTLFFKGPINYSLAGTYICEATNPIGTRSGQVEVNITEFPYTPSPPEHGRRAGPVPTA

[3] = molecular target: T3, Nectin-4 extracellular domain Fc fusion recombinant protein (human, UniProt Q96NY8 32-349); experiment: ELISA, plate coated with Nec4-VCC, peroxidase-conjugated Ch-15A7.5 (FIG. 2)
T3 construct: extracellular domain; also called Nec4-VCC; Nectin-4-VCC-Fc; not shown: Fc part
T3 sequence (looked up): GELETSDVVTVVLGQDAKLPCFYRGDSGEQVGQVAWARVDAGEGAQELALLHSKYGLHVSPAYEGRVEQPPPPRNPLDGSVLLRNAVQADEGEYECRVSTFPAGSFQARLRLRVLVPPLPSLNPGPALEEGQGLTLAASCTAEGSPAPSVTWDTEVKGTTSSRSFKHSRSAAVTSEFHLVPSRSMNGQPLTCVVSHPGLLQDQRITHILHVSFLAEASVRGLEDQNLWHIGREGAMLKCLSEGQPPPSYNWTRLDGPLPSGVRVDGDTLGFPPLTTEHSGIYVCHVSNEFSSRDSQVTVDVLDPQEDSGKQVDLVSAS

[4] = molecular target: T4, human Nectin-4 on cells (CHO cells transfected with human Nectin-4 cDNA); normal differentiated human … (human, UniProt Q96NY8 32-510); experiment: flow cytometry on normal differentiated human keratinocytes (NHEK), 8 pM-33 nM (FIG. 15)
T4 construct: whole, on cells
T4 sequence (looked up): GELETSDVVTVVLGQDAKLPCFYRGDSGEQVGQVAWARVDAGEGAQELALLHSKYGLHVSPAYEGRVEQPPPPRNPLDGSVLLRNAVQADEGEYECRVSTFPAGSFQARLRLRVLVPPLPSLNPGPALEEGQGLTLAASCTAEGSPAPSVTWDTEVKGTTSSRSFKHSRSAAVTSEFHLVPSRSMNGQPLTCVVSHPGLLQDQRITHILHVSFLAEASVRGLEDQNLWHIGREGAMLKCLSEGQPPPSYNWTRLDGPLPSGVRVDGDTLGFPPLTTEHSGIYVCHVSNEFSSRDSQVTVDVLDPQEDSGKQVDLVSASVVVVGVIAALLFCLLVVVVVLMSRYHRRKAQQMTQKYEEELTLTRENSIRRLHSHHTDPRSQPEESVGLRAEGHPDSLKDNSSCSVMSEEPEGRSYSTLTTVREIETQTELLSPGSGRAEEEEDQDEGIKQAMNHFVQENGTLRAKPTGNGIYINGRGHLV

[5] = molecular target: T5, N-terminal Flag-tagged human Nectin-4 expressed on transfected MDA-MB231 cells (human, UniProt Q96NY8 32-510); experiment: flow cytometry on MDA-MB231 cells transfected with N-terminal Flag-tagged Nectin-4 (FIG. 1)
T5 construct: whole, on cells; also called PVRL4; not shown: N-terminal Flag tag
T5 sequence (looked up): T4 sequence (looked up)

[6] = molecular target: T4, human Nectin-4 on cells (CHO cells …); experiment: flow cytometry on normal differentiated human keratinocytes (NHEK), 8 pM-33 nM (FIG. 15); reference antibody of the comparison

Row | Binder | binding result [1] | binding result [2] | binding result [3] | binding result [4] | binding result [5] | binding result [6]
1 | B1 | binds | no binding (tested: 10 nM) | binds | binds | binds | –
2 | B2 | – | – | – | – | binds | binds
